According to US20260209387A1, “SINGLE-DOMAIN ANTIBODY FOR INHIBITION OF NEUTROPHIL ELASTASE ACTIVITY” (UNIVERSITE DE LIEGE, priority 2023, published 2026):

Columns and labels:
hNE = target: T1, hNE (Homo sapiens, UniProt P08246); test: hNE inhibition, hydrolysis of elastin (Elastin-CongoRed); assay type: biochemical
T1 construct: purchased Elastin Products Company (EPC)
T1 sequence (P08246 30-247): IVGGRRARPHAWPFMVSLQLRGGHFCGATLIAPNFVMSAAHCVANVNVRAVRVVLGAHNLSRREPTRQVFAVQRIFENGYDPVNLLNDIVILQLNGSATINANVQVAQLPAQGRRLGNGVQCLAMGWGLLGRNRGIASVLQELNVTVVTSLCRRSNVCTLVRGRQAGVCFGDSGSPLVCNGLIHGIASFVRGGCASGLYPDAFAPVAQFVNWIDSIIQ
Protocol: 1.6.2. Inhibition of the hydrolysis of elastin, a natural substrate of hNE. […] The samples were incubated for 16 hours at 37° C. with orbital shaking (900 rpm). The samples were then centrifuged at 90′000 g for 30 minutes at 4° C. to separate the insoluble Elastin from the digested and soluble molecule fragments. The soluble fraction was transferred into a 384-wells clear plate and the absorbance of Congo-red was measured at 495 nm in a SpectraMax M2e Microplates Reader (Molecular Devices, California, USA). The absorbance of the samples at different inhibitor: hNE molar ratios was compared to that measured in the absence of inhibitor, to determine the residual hNE activity. A sample of Elastin-Congo red without elastase was used as blank.

mNE = target: T2, mNE (Mus musculus, UniProt Q3UP87); test: Affinity of NbE201 for mNE by BLI; assay type: binding
T2 sequence (Q3UP87 27-265): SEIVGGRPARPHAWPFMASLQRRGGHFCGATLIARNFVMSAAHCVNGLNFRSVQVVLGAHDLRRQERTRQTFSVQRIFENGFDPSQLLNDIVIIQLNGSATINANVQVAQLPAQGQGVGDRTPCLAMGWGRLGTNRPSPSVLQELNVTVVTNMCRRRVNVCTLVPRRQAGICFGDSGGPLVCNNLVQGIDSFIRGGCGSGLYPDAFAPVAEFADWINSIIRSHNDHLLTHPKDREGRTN
Protocol: For mNE, NbE201_Cter Biot was immobilized on SA biosensors (Sartorius) via the C-terminal biotin following the provider's indications. Then, the biosensors were immersed in a solution of mNE at different concentrations (100-50-25-12.5-6.25-3.125 nM). Association and dissociation kinetics were measured for 300 s and 600 s respectively. All the experiments (for both hNE and mNE) were carried out at 30° C. in 384-wells black-bottom microplates in polypropylene (Greiner Bio-One, Belgium) and with orbital agitation (1000 rpm). The obtained sensorgrams were fitted to a 1:1 model by using the Data Analysis Octet Software Version 10.0 (Sartorius) to derive the rate constants for association (kon) and dissociation (koff) and the equilibrium dissociation constant (KD-koff/kon).

human cathepsin G (hCG) = target: T3, human cathepsin G (hCG) (Homo sapiens, UniProt P08311); test: BLI binding to other serine proteases: hCG; details: 50 nM protease
T3 construct: purchased Calbiochem
T3 sequence (P08311 21-244): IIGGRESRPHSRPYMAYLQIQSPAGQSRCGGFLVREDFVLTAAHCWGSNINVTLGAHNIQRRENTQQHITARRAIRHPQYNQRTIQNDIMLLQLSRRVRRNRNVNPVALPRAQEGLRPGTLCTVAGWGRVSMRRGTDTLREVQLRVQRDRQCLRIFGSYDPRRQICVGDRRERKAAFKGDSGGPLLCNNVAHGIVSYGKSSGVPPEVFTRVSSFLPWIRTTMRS
Protocol: The specificity of NbE201 for hNE was also investigated by BLI. Biotinylated NbE201 (10 μg/mL) was immobilized on streptavidin biosensors (SA, Sartorius) following provider's indications. The biosensors were then immersed in a 50 nM solution of a serine protease. The proteases tested were human cathepsin G (hCG), human proteinase 3 (hPR3), mouse pancreatic elastase (mPE), mouse neutrophil elastase (mNE) and porcine pancreatic elastase (pPE). hNE was used a positive control. The association and dissociation were measured for 70 s and 320 s respectively, in kinetic buffer (KB, Sartorius). The experiments were carried out at 30° C. in 384-wells black-bottom microplates in polypropylene (Greiner Bio-One, Belgium) and with orbital agitation (1000 rpm).

[1] = tested on: hNE-induced alveolar-capillary damage; test: hNE-induced acute lung injury mouse model; assay type: in vivo, mice; details: nasal instillation 15 min prior to hNE 25 μg; molar ratio Nb/HNE 4/1
Protocol: The in vivo efficacy of NbE201 was determined using a mouse model of acute lung injury induced by nasal instillation of HNE (L agente et al., 2009, American Thoracic Society International Conference Abstracts. (American Thoracic Society), A5668. doi: 10.1164/ajrccm-conference.2009.179.1_MeetingAbstracts.A5668). […]
It was determined with the hemoglobin assay kit (Sigma) and performed according to the manufacturer's instructions. […] A measurement of the optical density at 400 nm allowed the quantification of this stable complex. […]
Histological sections of the lung were digitized using a panoramic scan 2 (3[…]). […] This semi-automated analysis made it possible to quantify the damaged alveolar surface. […] The percentage of injured surface was determined by the ratio: % injured area=(injured area/alveolar area)×100

B1: NbE201: anti-hNE ISVD (VHH/nanobody) from immunized lama, amino acid sequence SEQ ID NO: 4 (protein)
VHH: QVQLQESGGGLVQAGGSLRLSCVVPGRTISLYRMGWFRQAPGKEREFVAGINWSGDMTDYVDSVKGRFTISRDNAKNTVYLEMNSLKPEDTAIYYCTADPKLLPLADSSYGYWGQGTQVTVSS
With B1 the “hNE residual activity, elastin hydrolysis” value (hNE; [inhibitor]:[hNE] = 50) was “almost zero”, the “inhibition of hNE activity, elastin hydrolysis” value (hNE; [inhibitor]:[hNE] ratio 15) was 80% and the koff (mNE) was 0.019 s⁻¹. For the same molecule, the kon (mNE) was 390000 M⁻¹ s⁻¹, the “binding to hCG by BLI” value (human cathepsin G (hCG)) was “does not bind to the other proteases” and the “protection against hNE-induced alveolar-capillary damage” value [1] was “protects the lungs from developing alveolar-capillary damage”.
